Molecular target: cynomolgus Lag3 on cells (HEK293F cells transiently transfected with cyno-LAG-3; activated cynomolgus PBMC/T cells) (cynomolgus)
Assay: flow cytometry on CD3/CD28-activated cynomolgus PBMC, antibody at 10 ug/ml

DP47 (human isotype) (antibody) was tested, and the percentage of Lag3 positive cells was 9.19%.
